US20080213817A1 (published 2008)

Biological target: T1, mitogen-activated protein kinase/ERK kinase kinase 1 (MEKK1) (mouse, UniProt P53349 2-1493)
T1 construct: Endogenous protein co-immunoprecipitated from mouse thymocyte / T cell lysates, not a recombinant construct; also called MEK kinase 1; MAPK/ERK kinase kinase 1
T1 sequence (looked up): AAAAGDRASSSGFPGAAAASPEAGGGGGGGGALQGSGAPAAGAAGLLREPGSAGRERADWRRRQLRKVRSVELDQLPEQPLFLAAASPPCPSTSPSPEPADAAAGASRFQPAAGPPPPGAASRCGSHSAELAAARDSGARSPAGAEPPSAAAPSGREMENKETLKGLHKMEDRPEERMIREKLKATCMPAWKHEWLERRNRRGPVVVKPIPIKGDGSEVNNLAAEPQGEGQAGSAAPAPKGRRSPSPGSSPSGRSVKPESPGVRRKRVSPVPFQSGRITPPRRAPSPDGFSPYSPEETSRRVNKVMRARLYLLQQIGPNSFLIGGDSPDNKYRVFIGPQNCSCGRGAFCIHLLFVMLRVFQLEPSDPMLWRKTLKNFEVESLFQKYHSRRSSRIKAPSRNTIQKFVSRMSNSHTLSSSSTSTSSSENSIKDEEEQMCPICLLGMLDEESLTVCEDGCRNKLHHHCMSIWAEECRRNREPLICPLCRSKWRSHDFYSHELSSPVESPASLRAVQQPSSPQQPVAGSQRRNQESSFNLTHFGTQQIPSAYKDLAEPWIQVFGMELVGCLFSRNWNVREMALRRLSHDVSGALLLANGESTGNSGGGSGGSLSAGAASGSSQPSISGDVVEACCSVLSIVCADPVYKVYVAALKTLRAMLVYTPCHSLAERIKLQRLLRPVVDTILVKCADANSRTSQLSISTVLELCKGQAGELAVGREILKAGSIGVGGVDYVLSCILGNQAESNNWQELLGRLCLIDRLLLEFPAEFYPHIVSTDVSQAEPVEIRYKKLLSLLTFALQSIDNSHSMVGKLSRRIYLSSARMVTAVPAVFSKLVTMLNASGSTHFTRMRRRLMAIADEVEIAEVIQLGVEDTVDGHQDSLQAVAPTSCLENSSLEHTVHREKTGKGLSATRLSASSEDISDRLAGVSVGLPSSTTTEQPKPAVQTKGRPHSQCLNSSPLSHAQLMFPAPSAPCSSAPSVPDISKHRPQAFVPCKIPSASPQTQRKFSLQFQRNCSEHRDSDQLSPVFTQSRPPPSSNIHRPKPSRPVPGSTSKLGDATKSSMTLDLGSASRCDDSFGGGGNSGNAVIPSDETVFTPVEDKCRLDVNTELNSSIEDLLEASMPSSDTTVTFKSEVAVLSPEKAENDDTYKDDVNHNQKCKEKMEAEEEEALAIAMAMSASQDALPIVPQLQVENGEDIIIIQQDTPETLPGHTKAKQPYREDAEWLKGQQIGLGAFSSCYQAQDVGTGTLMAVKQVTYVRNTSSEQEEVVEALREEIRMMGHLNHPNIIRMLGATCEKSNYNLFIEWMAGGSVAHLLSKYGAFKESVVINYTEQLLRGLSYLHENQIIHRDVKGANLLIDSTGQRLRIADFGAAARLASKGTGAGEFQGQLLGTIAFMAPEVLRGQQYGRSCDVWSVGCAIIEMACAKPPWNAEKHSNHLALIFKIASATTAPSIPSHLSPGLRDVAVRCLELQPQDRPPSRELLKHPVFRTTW
Test: co-immunoprecipitation (summary of the results)

B1: E3 ubiquitin ligase Itch (enzyme)
chain: not shown
notes: Endogenous protein from mouse thymocytes / T cells; also called Itchy E3 ubiquitin protein ligase; AIP4
**Q.** Does B1 bind?
**A.** Result: binds
